The test concerns the target ER peptide mimic. Briefly: immunostaining of ER peptide mimic spots on a membrane, colour scored 1-4+.

For “1D5 anti-human estrogen receptor mouse monoclonal antibody”, the Staining intensity (1-4+) was 4 1-4+ scale.

(Values after patent publication US7011940.)
